Measured values: article PMC10711550, “Molecular basis for SOX2-dependent regulation of super-enhancer activity” (Nucleic Acids Research, 2023)

Legend:
Conditions in all cases: both partners purified
[1] = target: T1, full-length human SOX2 (recombinant, N-terminal His-tag, 327 amino acids) (human, UniProt P48431 1-317); experiment: BLI; 0.2 mg/ml SOX2 immobilised on an AR2G chip, quenched with 1 M ethanolamine; p300 (0-400 nM), KIX (0-43 uM), fragments (3 uM KIX and BR, 0.8 uM KB) in PBS; global fit, 1:1 binding model; BLItz
T1 construct: human SOX2, full length, 317 amino acids; with the tag peptide 327 amino acids; Immobilised on an AR2G chip in BLI
T1 sequence (P48431 whole entry, the tested form may be a part): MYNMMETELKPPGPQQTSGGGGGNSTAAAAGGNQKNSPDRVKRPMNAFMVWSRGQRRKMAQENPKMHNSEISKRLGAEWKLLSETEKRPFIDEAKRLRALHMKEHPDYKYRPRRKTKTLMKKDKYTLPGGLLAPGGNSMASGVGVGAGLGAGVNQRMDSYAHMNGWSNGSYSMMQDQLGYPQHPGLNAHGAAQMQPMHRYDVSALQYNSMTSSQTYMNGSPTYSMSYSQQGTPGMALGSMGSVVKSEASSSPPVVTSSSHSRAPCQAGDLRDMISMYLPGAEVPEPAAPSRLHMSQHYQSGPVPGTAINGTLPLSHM

[2] = target: T2, DNA-binding domain of SOX2 (aa 39-127) (human, UniProt P48431 39-127); experiment: BLI; SOX2DBD or SOX2CTD with KIX or bromodomain; who was immobilised not given; global fit to a 1:1 binding model (BLItz Pro v.1.2.1.5)
T2 construct: also called SOX2DBD; DBDSOX2; source: E. coli BL21(DE3), purified from the supernatant (HisTrap HP, Superose 6 Increase)
T2 sequence (P48431 39-127): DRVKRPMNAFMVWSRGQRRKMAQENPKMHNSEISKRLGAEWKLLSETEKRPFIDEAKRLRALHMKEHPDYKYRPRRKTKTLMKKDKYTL

[3] = target: T3, C-terminal domain of SOX2 (aa 150-317) (human, UniProt P48431 150-317); experiment: as above
T3 construct: also called SOX2CTD; CTDSOX2; source: E. coli BL21(DE3), purified from the supernatant (HisTrap HP, Superose 6 Increase)
T3 sequence (P48431 150-317): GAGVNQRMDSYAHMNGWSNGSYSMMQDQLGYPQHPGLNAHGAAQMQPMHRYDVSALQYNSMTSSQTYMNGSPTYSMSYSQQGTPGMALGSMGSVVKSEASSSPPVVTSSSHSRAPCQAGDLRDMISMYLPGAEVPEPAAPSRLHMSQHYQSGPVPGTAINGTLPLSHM

[4] = target: T4, full-length human SOX2 (human, UniProt P48431 1-317); experiment: BLI; SOX2 (0.2 mg/ml) immobilised on an AR2G chip, quenched with 1 M ethanolamine; p300 fragments in PBS; global fit to a 1:1 binding model (BLItz Pro v.1.2.1.5)
T4 construct: human SOX2, UniProt P48431, 317 amino acids; with the N-terminal His-tag peptide the recombinant protein has 327 amino acids; cloned into the pVFT1S plasmid
T4 sequence (P48431 whole entry, the tested form may be a part): as the sequence (P48431 whole entry, the tested form may be a part) above

B1: p300 bromodomain (aa 1067-1139) (domain or fragment, human, UniProt Q09472 1067-1139, looked up)
chain: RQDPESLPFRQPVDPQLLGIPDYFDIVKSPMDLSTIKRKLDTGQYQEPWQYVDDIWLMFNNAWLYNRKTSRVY
notes: human p300, bromodomain, residues 1067-1139; also called p300BD; BD; source: E. coli BL21(DE3), purified from the supernatant (HisTrap HP, Superose 6 Increase)
fold higher KD than p300KIX [1]: 20.1 fold

B2: p300 KIX-BD fragment (aa 566-1139) (domain or fragment)
chain: not shown
notes: human p300, KIX + bromodomain, residues 566-1139; also called p300KB; KB; source: E. coli BL21(DE3), purified from the supernatant (HisTrap HP, Superose 6 Increase)
fold lower KD than p300BD [1]: 834 fold
fold lower KD than p300KIX [1]: 41.4 fold

B3: p300 KIX domain (aa 566-646) (domain or fragment)
chain: not shown
notes: human p300, UniProt Q09472, KIX domain, aa 566-646; also called KIXp300; source: E. coli BL21(DE3), purified from the supernatant (HisTrap HP, Superose 6 Increase)
koff [2]: 0.0469 s⁻¹
kon [2]: 5060 M⁻¹ s⁻¹
koff [3]: 0.0849 s⁻¹
kon [3]: 1720 M⁻¹ s⁻¹

B4: p300 bromodomain (aa 1067-1139) (domain or fragment, human, UniProt Q09472 1067-1139, looked up)
chain: B1 chain
notes: human p300, UniProt Q09472, bromodomain, aa 1067-1139; also called BD; p300BD; source: E. coli BL21(DE3), purified from the supernatant (HisTrap HP, Superose 6 Increase)
koff [2]: 0.0265 s⁻¹
kon [2]: 172 M⁻¹ s⁻¹
koff [3]: 0.0951 s⁻¹
Kd [4]: 54 µM
koff [4]: 0.00606 s⁻¹
kon [4]: 112 M⁻¹ s⁻¹
